Sequences and labels used below:
B1: Drp1 (dynamin-related protein Drp1), wild type [not stated] / GST-MiD51^133-463, wild type [human] (parent complex)
chain 1: MEALIPVINKLQDVFNTVGADIIQLPQIVVVGTQSSGKSSVLESLVGRDLLPRGTGIVTRRPLILQLVHVSQEDKRKTTGEENGVEAEEWGKFLHTKNKLYTDFDEIRQEIENETERISGNNKGVSPEPIHLKIFSPNVVNLTLVDLPGMTKVPVGDQPKDIELQIRELILRFISNPNSIILAVTAANTDMATSEALKISREVDPDGRRTLAVITKLDLMDAGTDAMDVLMGRVIPVKLGIIGVVNRSQLDINNKKSVTDSIRDEYAFLQKKYPSLANRNGTKYLARTLNRLLMHHIRDCLPELKTRINVLAAQYQSLLNSYGEPVDDKSATLLQLITKFATEYCNTIEGTAKYIETSELCGGARICYIFHETFGRTLESVDPLGGLNTIDILTAIRNATGPRPALFVPEVSFELLVKRQIKRLEEPSLRCVELVHEEMQRIIQHCSNYSTQELLRFPKLHDAIVEVVTCLLRKRLPVTNEMVHNLVAIELAYINTKHPDFADACGLMNNNIEEQRRNRLARELPSAVSRDKVASGGGGVGDGVQEPTTGNWRGMLKTSKAEELLAEEKSKPIPIMPASPQKGHAVNLLDVPVPVARKLSAREQRDCEVIERLIKSYFLIVRKNIQDSVPKAVMHFLVNHVKDTLQSELVGQLYKSSLLDDLLTESEDMAQRRKEAADMLKALQGASQIIAEIRETHLW
chain 2: MSLQEKLLTYYRNRAAIPAGEQARAKQAAVDICAELRSFLRAKLPDMPLRDMYLSGSLYDDLQVVTADHIQLIVPLVLEQNLWSCIPGEDTIMNVPGFFLVRRENPEYFPRGSSYWDRCVVGGYLSPKTVADTFEKVVAGSINWPAIGSLLDYVIRPAPPPEALTLEVQYERDKHLFIDFLPSVTLGDTVLVAKPHRLAQYDNLWRLSLRPAETARLRALDQADSGCRSLCLKILKAICKSTPALGHLTASQLTNVILHLAQEEADWSPDMLADRFLQALRGLISYLEAGVLPSALNPKVNLFAELTPEEIDELGYTLYCSLSEPEVLLQT

One test covers variants of B1. The test can be described thus: GST pull-down, SDS-PAGE band quantification; parent: 0.15; read off a plot.
With chain 1 G401A, chain 1 P402A, chain 1 R403A, chain 1 P404A, the response is about 0.064 molar ratio.
Same read-out and setting: to chain 1 G350D belongs about 0.089 molar ratio; to chain 1 G350D, chain 1 G401A, chain 1 P402A, chain 1 R403A, chain 1 P404A, about 0.017 molar ratio; to chain 1 G350D, chain 1 A395D, about 0.01 molar ratio.
Still for that read-out and setting: the value for chain 1 A395D was about 0.084 molar ratio.
Same read-out and setting: the value for chain 1 S579D was about 0.19 molar ratio; that for chain 1 A395D, chain 1 G401A, chain 1 P402A, chain 1 R403A, chain 1 P404A was about 0.012 molar ratio.
Turning to chain 1 S600D, the response was about 0.16 molar ratio.

The variants in the next test derive from B1. As to the kind of experiment: GST pull-down, SDS-PAGE band quantification; parent: 0.3; read off a plot.
Consider chain 2 R111E, for which the response is about 0.082 molar ratio.
On the same count and under the same terms, to chain 2 F109A belongs about 0.055 molar ratio; to chain 2 S285Q, about 0.33 molar ratio; to chain 2 Y108A, about 0.058 molar ratio.
On the same count and under the same terms, the value for chain 2 R102E was about 0.082 molar ratio.
The same measure, in the same setting: the value for chain 2 E107R was about 0.42 molar ratio.

The values above are taken from PMC6355003 (2019).
